This note sets out measurements from patent US20260115250A1, “METHODS OF TREATING AGE-RELATED MACULAR DEGENERATION” (Character Biosciences, Inc., priority 2022, published 2026).

The nature of assay [1]: DMPC solubility assay, 0.5 mM DMPC (turbidity reduction). Type of assay: biochemical. The settings on record: FIGS. 2A-2D and 3A-3C. On the procedure:
In this example, peptide stocks were diluted to 200 μM in H2O (a 2× solution) and 50 μL of peptide solution was transferred in triplicate into 96-well plates. A one mM solution of 1,2-dimyristoyl-sn-glycero-3-phosphocholine (DMPC) in H2O was prepared, and using a multichannel pipet, 50 μL DMPC solution was rapidly added to the plate. Peptide and lipid solutions were incubated at room temperature for 15 minutes with a final concentration of 100 μM peptides and 0.5 mM DMPC. After 15 minutes, absorbance was read on a plate reader at 405 nm. […] Data are presented as mean+SD over two runs.
In these experiments, DMPC solubility titration curves were generated. Peptide stocks were diluted to 200 μM in H2O (a 2× solution) and serially diluted in H2O over 4 concentrations, then 50 μL of peptide solutions were distributed in triplicate into 96-well plates. A 1 mM solution of 1,2-dimyristoyl-sn-glycero-3-phosphocholine (DMPC) in H2O was prepared, and using a multichannel pipet, 50 μL DMPC solution was rapidly added to the plate. Peptide and lipid solutions were incubated at room temperature for 15 minutes with final concentrations of 3.16-100 μM peptides and 0.5 mM DMPC. After 15 minutes, absorbance was read on a plate reader at 405 nm. […] Data are presented as mean+SD over two runs. Non-linear regression was used to calculate EC50 values.

The target of the next assay is LDLR (Homo sapiens, UniProt P01130). Kind of assay: lipid-dependent LDLR binding (SPR), single concentration. The following applies: 1 μM peptide with or without 25 μM DMPC. On the procedure: Peptides were diluted in 1×HBS-N buffer with 1 mM CaCl2 to a final concentration of 1 μM and incubated with or without 25 μM DMPC for 1 hour at RT to form lipid complexes. Each peptide was tested in duplicate. LDLR was diluted to 10 μg/mL in 10 mM acetate buffer pH 4.5 and was immobilized (˜400RU) on a CM5 chip via amine coupling utilizing 1×HBS-P+ buffer with 1 mM CaCl2. Test peptides (with or without DMPC) were exposed to immobilized LDLR at a flow rate of […] for 120 seconds in HBS-N with 1 mM CaCl2. Between cycles the surface was regenerated with 3, 30 second injections of 10 mM NaOH and 100 mM EDTA. Data are plotted as max RU values, averaged from three separate runs.

The test system of another assay is ARPE-19 cells. Put plainly: ARPE-19 GAG-dependent cholesterol import (with or without heparin). The settings on record: ARPE-19, 10 μM peptide. Type of assay: cell-based, human. As to the method: ARPE-19 cells were seeded on 96-well plates at 25,000 cells per well and grown to confluence. A 2× solution of 500 μM DMPC and 50 μM BODIPY-Cholesterol with or without 100 µg/mL heparin was prepared in serum free DMEM: F12. Peptides were diluted to 20 μM in serum free DMEM: F12 (a 2× solution). Peptides were added to lipid solution in equal parts (60 μL each) and incubated for 1 hour at 37° C. ARPE-19 cells were serum starved in serum free DMEM: F12 for 1 hour at 37° C. Peptide: Lipid complexes (100 μL total volume per well) were transferred to ARPE-19 cells for 2 hours at 37° C. Cells were washed, fixed, and intracellular fluorescence was read on Promega GloMax at 475 nm excitation, 500-550 emission. Fluorescence values were background corrected from no treatment conditions. Data are presented ±SD for 2 runs.

The nature of assay [2]: peptide binding to non-oxidized and oxidized lipids (SPR). The settings on record: immobilized peptide; RU normalized to DMPC. As to the method:
FIGS. 25A-25O show peptide binding activity to non-oxidized and oxidized lipids via SPR for indicated peptides. Peptides were reconstituted to 50 μg/mL in 10 mM acetate buffer, pH 4.5 and immobilized to ˜200 RU on a CM5 chip via amine coupling. Non-oxidized lipids (DMPC & POPC) and oxidized lipids (POVPC & KOdiA-PC) were diluted to 100 µM in HBS-EP running buffer and exposed to the chip for binding (n=3) at a flow rate of […] for 120 seconds. The surface was regenerated with 20% EtOH. T-001 served as a positive control and T-031 served as a negative control on each chip. For each peptide, the RU response for all lipids was normalized to the DMPC RU values.

LDLR, sequence (P01130 22-860): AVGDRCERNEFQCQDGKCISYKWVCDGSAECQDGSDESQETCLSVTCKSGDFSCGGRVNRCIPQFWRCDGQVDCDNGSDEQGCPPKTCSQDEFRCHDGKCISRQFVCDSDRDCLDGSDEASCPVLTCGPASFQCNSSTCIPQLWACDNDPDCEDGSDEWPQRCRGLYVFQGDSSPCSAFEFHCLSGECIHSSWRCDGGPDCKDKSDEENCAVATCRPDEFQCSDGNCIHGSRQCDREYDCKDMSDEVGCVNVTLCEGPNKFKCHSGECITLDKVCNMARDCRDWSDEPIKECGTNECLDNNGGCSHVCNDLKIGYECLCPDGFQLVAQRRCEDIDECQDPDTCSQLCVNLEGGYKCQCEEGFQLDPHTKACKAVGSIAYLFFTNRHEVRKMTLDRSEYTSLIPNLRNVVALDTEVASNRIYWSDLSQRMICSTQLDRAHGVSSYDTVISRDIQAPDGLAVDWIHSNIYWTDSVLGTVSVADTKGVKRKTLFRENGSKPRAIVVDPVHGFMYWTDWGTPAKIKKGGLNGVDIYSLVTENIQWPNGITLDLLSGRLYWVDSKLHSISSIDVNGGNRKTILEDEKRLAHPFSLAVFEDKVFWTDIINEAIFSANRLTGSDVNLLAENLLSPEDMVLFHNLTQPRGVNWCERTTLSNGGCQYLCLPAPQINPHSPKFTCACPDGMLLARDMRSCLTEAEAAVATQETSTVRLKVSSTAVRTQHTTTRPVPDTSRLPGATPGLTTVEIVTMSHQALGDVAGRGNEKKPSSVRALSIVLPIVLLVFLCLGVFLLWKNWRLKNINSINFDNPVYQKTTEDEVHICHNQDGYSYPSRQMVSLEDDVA

B1: T-013: therapeutic peptide (peptide)
chain: TRARLSKELQAAQARLGADMEDVRGRLVQYRGEVQAMLGQSTEELRVRLASHLRKLRKRLLRDADDLQKRLAVYQA
For B1, the DMPC solubilizing activity entry in assay [1] is reported as “significant activity”. Further, the “lipid-dependent LDLR binding (RU with lipid vs peptide alone)” value with LDLR is “lipid-dependent LDLR binding activity”. The “GAG dependence of cholesterol import” value with ARPE-19 cells is on record as “rely on GAG binding for cholesterol import activity”. For the same molecule, the “binding to oxidized lipids relative to DMPC” value in assay [2] was “binding to at least one oxidized lipid that was equivalent or improved to binding against DMPC”.
